Test results published in US20240158479A1 (RUTGERS THE STATE UNIVERSITY OF NEW JERSEY, published 2024).
“And” between values parts separate entries of the source, which are not always exact repeats. Equal values may be shown once. Read-outs that look alike come from different tables or passages of the source.

How the values were obtained:
Assay in all cases: cell-based or functional assay
[1] = biological target: Wuhan_Hu-1 spike (B.1_614D) on pseudovirus (SARS-CoV-2, UniProt P0DTC2 14-1273)
[2] = biological target: Wuhan_Hu-1_D614G spike (B.1) on pseudovirus (SARS-CoV-2, UniProt P0DTC2 14-1273)
[3] = biological target: Omicron BA.1 spike on pseudovirus (SARS-CoV-2)
[4] = biological target: Omicron BA.1 spike on pseudovirus (SARS-CoV-2); remark: listed apart in the source
[5] = biological target: Omicron BA.4.6 spike on pseudovirus (SARS-CoV-2)
[6] = biological target: Omicron BA.2 spike on pseudovirus (SARS-CoV-2)
[7] = biological target: Omicron BA.2.75 spike on pseudovirus (SARS-CoV-2)
[8] = biological target: Omicron BA.2.12.1 spike on pseudovirus (SARS-CoV-2)
[9] = biological target: Omicron BA.4/5 spike on pseudovirus (SARS-CoV-2)
[10] = biological target: Omicron BA.1 spike on pseudovirus (SARS-CoV-2); remark: listed apart in the source
[11] = biological target: Omicron BA.4.6 spike on pseudovirus (SARS-CoV-2); remark: listed apart in the source
[12] = biological target: Gamma spike (P.1) on pseudovirus (SARS-CoV-2)
[13] = biological target: Alpha spike (B.1.1.7) on pseudovirus (SARS-CoV-2)
[14] = biological target: Wuhan_Hu-1_D614G spike (B.1) on pseudovirus (SARS-CoV-2, UniProt P0DTC2 14-1273); remark: listed apart in the source
[15] = biological target: Omicron BA.2 spike on pseudovirus (SARS-CoV-2); remark: listed apart in the source
[16] = biological target: Beta spike (B.1.351) on pseudovirus (SARS-CoV-2)
[17] = biological target: Omicron BQ.1.1 spike on pseudovirus (SARS-CoV-2)
[18] = biological target: Omicron BA.2.75 spike on pseudovirus (SARS-CoV-2); remark: listed apart in the source
[19] = biological target: Delta spike (B.1.617.2) on pseudovirus (SARS-CoV-2)
[20] = biological target: Wuhan_Hu-1 spike (B.1_614D) on pseudovirus (SARS-CoV-2, UniProt P0DTC2 14-1273); remark: listed apart in the source
[21] = biological target: Omicron BA.2.12.1 spike on pseudovirus (SARS-CoV-2); remark: listed apart in the source
[22] = biological target: Omicron BA.4/5 spike on pseudovirus (SARS-CoV-2); remark: listed apart in the source

B1: Casirivimab (antibody, V domains shown)
VH: QVQLVESGGGLVKPGGSLRLSCAASGFTFSDYYMSWIRQAPGKGLEWVSYITYSGSTIYYADSVKGRFTISRDNAKSSLYLQMNSLRAEDTAVYYCARDRGTTMVPFDYWGQGTLVTVSS
VL: DIQMTQSPSSLSASVGDRVTITCQASQDITNYLNWYQQKPGKAPKLLIYAASNLETGVPSRFSGSGSGTDFTFTISGLQPEDIATYYCQQYDNLPLTFGGGTKVEIK
IC50, pseudovirus neutralization [1]: 6.2 ng/mL | IC50, pseudovirus neutralization [2]: 2.3 ng/mL

B2: Bebtelovimab (antibody, V domains shown)
VH: QITLKESGPTLVKPTQTLTLTCTFSGFSLSISGVGVGWLRQPPGKALEWLALIYWDDDKRYSPSLKSRLTISKDTSKNQVVLKMTNIDPVDTATYYCAHHSISTIFDHWGQGTLVTVSS
VL: QSALTQPASVSGSPGQSITISCTATSSDVGDYNYVSWYQQHPGKAPKLMIFEVSDRPSGISNRFSGSKSGNTASLTISGLQAEDEADYYCSSYTTSSAVFGGGTKLTVLG
IC50, pseudovirus neutralization [1]: 2.8 ng/mL | IC50, pseudovirus neutralization [2]: 1.9 ng/mL

B3: Bamlanivimab (antibody, V domains shown)
VH: QVQLVQSGAEVKKPGSSVKVSCKASGGTFSNYAISWVRQAPGQGLEWMGRIIPILGIANYAQKFQGRVTITADKSTSTAYMELSSLRSEDTAVYYCARGYYEARHYYYYYAMDVWGQGTAVTVSS
VL: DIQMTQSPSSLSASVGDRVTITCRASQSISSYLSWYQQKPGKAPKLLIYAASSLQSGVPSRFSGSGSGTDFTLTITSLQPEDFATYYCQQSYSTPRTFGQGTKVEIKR
IC50, pseudovirus neutralization [1]: 5.3 ng/mL | IC50, pseudovirus neutralization [2]: 2 ng/mL

B4: ACOVIMAB (antibody, V domains shown)
VH: EVQLVESGPEVKKPGTSVKVSCKASGFTFTTTSSVQWVRQARGQRLEWIGWIVVGSGETEYAQNFQDRVTITSDMSTTTAYMEMSSLRSEDSAFYYCAAPYCSGGTCMDGFDLWGQGTLVSVSS
VL: EIVLTQSPGTLSLSPGERATLSCRASQSVRSNYLGWYQQKPGQAPRLLIYAASSRATGIPDRFSGSGSGTDFTLTISRLEPEDFAVYYCQQYDRSPWTFGQGTKVESKR
IC50 vs BA1 [3]: 0.9 ng/ml and 60 pM | IC50, pseudovirus neutralization [4]: 1 to 3 ng/mL | IC50, pseudovirus neutralization [5]: 150 ng/mL | IC50, pseudovirus neutralization [6]: 1 to 3 ng/mL | IC50, pseudovirus neutralization [7]: 1 to 3 ng/mL | IC50, pseudovirus neutralization [8]: 1 to 3 ng/mL | IC50, pseudovirus neutralization [9]: 150 ng/mL and 280 ng/mL | IC50, pseudovirus neutralization [10]: 1.3 ng/mL | IC50, pseudovirus neutralization [11]: 220 ng/mL | IC50, pseudovirus neutralization [12]: 2.9 ng/mL | IC50, pseudovirus neutralization [13]: 5.2 ng/mL | IC50, pseudovirus neutralization [14]: 5.9 ng/mL | IC50, pseudovirus neutralization [15]: 2.9 ng/mL | IC50, pseudovirus neutralization [16]: 2 ng/mL | IC50, pseudovirus neutralization [17]: 290 ng/mL | IC50, pseudovirus neutralization [18]: 3.7 ng/mL | IC50, pseudovirus neutralization [19]: 5.1 ng/mL | IC50, pseudovirus neutralization [20]: 9 ng/mL | IC50, pseudovirus neutralization [21]: 3.7 ng/mL | IC50, pseudovirus neutralization [22]: 220 ng/mL

B5: Tixagevimab (antibody, V domains shown)
VH: QMQLVQSGPEVKKPGTSVKVSCKASGFTFMSSAVQWVRQARGQRLEWIGWIVIGSGNTNYAQKFQERVTITRDMSTSTAYMELSSLRSEDTAVYYCAAPYCSSISCNDGFDIWGQGTMVTVSS
VL: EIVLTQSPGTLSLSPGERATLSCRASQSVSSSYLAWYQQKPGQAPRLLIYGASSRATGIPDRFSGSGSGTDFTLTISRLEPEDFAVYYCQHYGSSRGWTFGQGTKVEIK
IC50, pseudovirus neutralization [1]: 3.2 ng/mL | IC50, pseudovirus neutralization [2]: 1.2 ng/mL

B6: Imdevimab (antibody, V domains shown)
VH: QVQLVESGGGVVQPGRSLRLSCAASGFTFSNYAMYWVRQAPGKGLEWVAVISYDGSNKYYADSVKGRFTISRDNSKNTLYLQMNSLRTEDTAVYYCASGSDYGDYLLVYWGQGTLVTVSS
VL: QSALTQPASVSGSPGQSITISCTGTSSDVGGYNYVSWYQQHPGKAPKLMIYDVSKRPSGVSNRFSGSKSGNTASLTISGLQSEDEADYYCNSLTSISTWVFGGGTKLTVLG
IC50, pseudovirus neutralization [1]: 4.8 ng/mL | IC50, pseudovirus neutralization [2]: 2.5 ng/mL

B7: Etesevimab (antibody, V domains shown)
VH: EVQLVESGGGLVQPGGSLRLSCAASGFTVSSNYMSWVRQAPGKGLEWVSVIYSGGSTFYADSVKGRFTISRDNSMNTLFLQMNSLRAEDTAVYYCARVLPMYGDYLDYWGQGTLVTVSS
VL: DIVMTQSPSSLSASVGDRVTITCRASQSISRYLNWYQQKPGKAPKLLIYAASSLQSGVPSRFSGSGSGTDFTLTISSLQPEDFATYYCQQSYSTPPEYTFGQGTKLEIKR
IC50, pseudovirus neutralization [1]: 12 ng/mL | IC50, pseudovirus neutralization [2]: 6.6 ng/mL
